The source of these data is patent publication US9163218B2, “Method for increasing the efficiency of inducing pluripotent stem cells” (GUANGZHOU INSTITUTES OF BIOMEDICINE AND HEALTH, CHINESE …, priority 2011, dated 2015).

This experiment deals with OG2 mouse embryonic fibroblasts. The experiment is described as follows: Induction of pluripotent stem cells (reprogramming) from OG2 mouse embryonic fibroblasts; GFP fluorescence clones counted. Type of experiment: cell-based. As to conditions: for induction of pluripotent stem cells with only SO, KO or Oct4: Jhdm1a and Jhdm1b together, mES medium with 50 μg/ml vitamin C, FIG. 3; for induction of pluripotent stem cells with only SO, KO or Oct4 / efficiency of reprogramming (inducing pluripotent stem cells) mediated by SKO / efficiency of reprogramming (inducing pluripotent stem cells) mediated by SKOM: control pMXs-FLAG empty vector; for efficiency of reprogramming (inducing pluripotent stem cells) mediated by SKO: with Klf4, Sox2, Oct4 (SKO); for efficiency of reprogramming (inducing pluripotent stem cells) mediated by SKO / efficiency of reprogramming (inducing pluripotent stem cells) mediated by SKOM: whether vitamin C present or not; for efficiency of reprogramming (inducing pluripotent stem cells) mediated by SKOM: with Klf4, Sox2, c-Myc, Oct4 (SKOM).

Regarding `O=C1O[C@H]([C@@H](O)CO)C(O)=C1O` [vitamin C, reference compound], under “Oct4 + Jhdm1b (OB), vitamin C present”, the “effect of vitamin C on reprogramming by Oct4 with Jhdm1b” value was “achieves more significant effects”. Further, the “effect of vitamin C on improvement of reprogramming efficiency, SKO” value (SKO plus Jhdm1a or Jhdm1b, vitamin C in inducing medium (50 μg/mL), FIG. 1) was “the improvement was more significant”. Moreover, the “effect of vitamin C on improvement of reprogramming efficiency, SKOM” value (SKOM plus Jhdm1a or Jhdm1b, vitamin C in inducing medium (50 μg/mL), FIG. 2) is recorded as “the improvement was more significant”.

B1: Jhdm1a: member of the JmjC-domain-containing histone demethylase family, expressed from pMXs-FLAG retroviral vector (SEQ ID NO: 1 / 7) (protein)
chain: MEPEEERIRYSQRLRGTMRRRYEDDGISDDEIEGKRTFDLEEKLQTNKYNANFVTFMEGKDFNVEYIQRGGLRDPLIFKNSDGLGIKMPDPDFTVNDVKMCVGSRRMVDVMDVNTQKGIEMTMAQWTRYYETPEEEREKLYNVISLEFSHTRLENMVQRPSTVDFIDWVDNMWPRHLKESQTESTNAILEMQYPKVQKYCLMSVRGCYTDFHVDFGGTSVWYHIHQGGKVFWLIPPTAHNLELYENWLLSGKQGDIFLGDRVSDCQRIELKQGYTFVIPSGWIHAVYTPTDTLVFGGNFLHSFNIPMQLKIYSIEDRTRVPNKFRYPFYYEMCWYVLERYVYCITNRSHLTKDFQKESLSMDMELNELESGNGDEEGVDREARRMNNKRSVLTSPVANGVNLDYDGLGKACRSLPSLKKTLSGDSSSDSTRGSHNGQVWDPQCSPKKDRQVHLTHFELEGLRCLVDKLESLPLHKKCVPTGIEDEDALIADVKILLEELASSDPKLALTGVPIVQWPKRDKLKFPTRPKVRVPTIPITKPHTMKPAPRLTPVRPAAASPIVSGARRRRVRCRKCKACVQGECGVCHYCRDMKKFGGPGRMKQSCVLRQCLAPRLPHSVTCSLCGEVDQNEETQDFEKKLMECCICNEIVHPGCLQMDGEGLLNEELPNCWECPKCYQEDSSDKAQKRKIEESDEEAVQAKVLRPLRSCEEPLTPPPHSPTSMLQLIHDPVSPRGMVTRSSPGAGPSDHHSASRDERFKRRQLLRLQATERTMVREKENNPSGKKELSEVEKAKIRGSYLTVTLQRPTKELHGTSIVPKLQAITASSANLRPNPRVLMQHCPARNPQHGDEEGLGGEEEEEEEEEEDDSAEEGGAARLNGRGSWAQDGDESWMQREVWMSVFRYLSRKELCECMRVCKTWYKWCCDKRLWTKIDLSRCKAIVPQALSGIIKRQPVSLDLSWTNISKKQLTWLVNRLPGLKDLLLAGCSWSAVSALSTSSCPLLRTLDLRWAVGIKDPQIRDLLTPPTDKPGQDNRSKLRNMTDFRLAGLDITDATLRLIIRHMPLLSRLDLSHCSHLTDQSSNLLTAVGSSTRYSLTELNMAGCNKLTDQTLFFLRRIANVTLIDLRGCKQITRKACEHFISDLSINSLYCLSDEKLIQKIS
modifications: FLAG tag; nucleotide acid sequence of coding regions for kdm2a
For the molecule B1, the “induction of pluripotent stem cells with only SO, KO or Oct4” value is recorded as “acted together to enable the induction of pluripotent stem cells”. The “efficiency of reprogramming (inducing pluripotent stem cells) mediated by SKO” value (FIG. 1) was “obviously improved the efficiency of reprogramming”. Moreover, the “efficiency of reprogramming (inducing pluripotent stem cells) mediated by SKOM” value (FIG. 2) is on record as “obviously improved the efficiency of reprogramming”.

B2: Jhdm1b: member of the JmjC-domain-containing histone demethylase family, expressed from pMXs-FLAG retroviral vector (SEQ ID NO: 2 / 8) (protein)
chain: MEAEKDSGRRLRAIDRQRYDENEDLSDVEEIVSVRGFSLEEKLRSQLYQGDFVHAMEGKDFNYEYVQREALRVPLVFRDKDGLGIKMPDPDFTVRDVKLLVGSRRLVDVMDVNTQKGTEMSMSQFVRYYETPEAQRDKLYNVISLEFSHTKLEHLVKRPTVVDLVDWVDNMWPQHLKEKQTEATNALAEMKYPKVKKYCLMSVKGCFTDFHIDFGGTSVWYHVFRGGKIFWLIPPTLHNLALYEEWVLSGKQSDIFLGDRVERCQRIELKQGYTFFIPSGWIHAVYTPVDSLVFGGNILHSFNVPMQLRIYEIEDRTRVQPKFRYPFYYEMCWYVLERYVYCVTQRSYLTQEYQRELMLIDAPRKTSVDGFSSDSWLDMEEESCEQQPQEEEEEEEDKEEEGDGADKTPKPPTDDPTSPTSTPPEDQDSTGKKPKAPAIRFLKRTLSNESEESVKSTSMPTDDPKTPTGSPATEVSTKWTHLTEFELKGLKALVEKLESLPENKKCVPEGIEDPQALLEGVKNVLKEHVDDDPTLAITGVPVVSWPKKTAKNRVVGRPKGKLGPASAVKLAANRTTAGARRRRTRCRKCEACLRTECGECHFCKDMKKFGGPGRMKQSCIMRQCIAPVLPHTAVCLVCGEAGKEDTVEEEEGKFNLMLMECSICNEIIHPGCLKIKESEGVVNDELPNCWECPKCNHAGKTGKQKRGPGFKYASNLPGSLLKEQKMNRDNKEGQEPAKRRSECEEAPRRRSDEHPKKVPADGILRRKSDDVHLRRKRKYEKPQELSGRKRASSLQTSPGSSSHLSPRPPLGSSLSPWWRSSLTYFQQQLKPGKEDKLFRKKRRSWKNAEDRLSLANKPLRRFKQEPEDDLPEAPPKTRESDQSRSSSPTAGPSTEGAEGPEEKKKVKMRRKRRLVNKELSKELSKELNHEIQKTESTLAHESQQPIKSEPESENDEPKRPLSHCERPHRFSKGLNGTPRELRHSLGPGLRSPPRVMSRPPPSASPPKCIQMERHVIRPPPISPPPDSLPLDDGAAHVMHREVWMAVFSYLSHRDLCVCMRVCRTWNRWCCDKRLWTRIDLNRCKSITPLMLSGIIRRQPVSLDLSWTNISKKQLSWLINRLPGLRDLVLSGCSWIAVSALCSSSCPLLRTLDVQWVEGLKDAQMRDLLSPPTDNRPGQMDNRSKLRNIVELRLAGLDITDVSLRLIIRHMPLLSKLQLSYCNHINDQSINLLTAVGTTTRDSLTEVNLSDCNKVTDLCLSFFKRCGNICHIDLRYCKQVTKEGCEQFIAEMSVSVQFGQVEEKLLQKLS
modifications: FLAG tag; nucleotide acid sequence of coding regions for kdm2b
With B2, the “induction of pluripotent stem cells with only SO, KO or Oct4” value is listed as “acted together to enable the induction of pluripotent stem cells”. Besides, the “completion of reprogramming by combination with Oct4 alone” value (Oct4 + Jhdm1b (OB), common culture medium without vitamin C) was “can complete reprogramming in a common culture medium”. The “efficiency of reprogramming (inducing pluripotent stem cells) mediated by SKO” value (FIG. 1) is given as “obviously improved the efficiency of reprogramming”. Besides, the “efficiency of reprogramming (inducing pluripotent stem cells) mediated by SKOM” value (FIG. 2) is listed as “obviously improved the efficiency of reprogramming”.
